Measurements: PMC5834530

Assays:
[1] = molecular target: MGG_01005 (Magnaporthe oryzae dynein light chain Tctex-type 1, dynlt1/3), wild type, recombinant (Magnaporthe oryzae) (UniProt G4NCW2); test: AUC
[2] = molecular target: MGG_01005 (Magnaporthe oryzae dynein light chain Tctex-type 1, dynlt1/3), wild type, recombinant (Magnaporthe oryzae) (UniProt G4NCW2); test: SEC; gel filtration chromatography of MGG_01005 (Supplementary Figure S3)
[3] = molecular target: MGG_01005 (Magnaporthe oryzae dynein light chain Tctex-type 1, dynlt1/3), wild type, recombinant (Magnaporthe oryzae) (UniProt G4NCW2); test: ITC
[4] = molecular target: MGG_01005 (Magnaporthe oryzae dynein light chain Tctex-type 1, dynlt1/3), wild type, recombinant (Magnaporthe oryzae) (UniProt G4NCW2); test: ITC; remark: listed apart in the source

MGG_01005 (Magnaporthe oryzae dynein light chain Tctex-type 1, dynlt1/3), wild type, recombinant (from UniProt G4NCW2 1-153) (natural protein)
stoichiometry N [1]: 2 | stoichiometry N [2]: 2

MoDyn1I2^117–150 peptide
stoichiometry N [3]: 0.4 to 0.7 | Kd [4]: 5.39 µM | stoichiometry N [4]: 0.55

MoDyn1I2^122–141 peptide
Kd [4]: 15.2 µM | dH [4]: -3.28 kcal/mol | stoichiometry N [4]: 1.13
